From the DeepSol protein solubility set

Experiment: soluble on expression in E. coli; label from the status in PepcDB or PDB records

Q: With “MSLHASAIESIETIIVDLPTIRPHKLAMHTMQNQTLVLIRLRCADGIEGLGESTTIGGLAYGNESPDSIKTNIDRFVAPLLIGQDASNINAAMLRLEQSIRGNTFAKSGIESALLDAQGKRLGLPVSELLGGRVRDALPVAWTLASGDTAKDIAEAQKMLDLRRHRIFKLKIGAGEVDRDLAHVIAIKKALGDSASVRVDVNQAWDEAVALRACRILGGNGIDLIEQPISRNNRAGMVRLNASSPAPIMADESIECVEDAFNLAREGAASVFALKIAKNGGPRATLRTAAIAEAAGIGLYGGTMLEGGIGTLASAHAFLTLNKLSWDTELFGPLLLTEDILAEPPVYRDFHLHVSKAPGLGLSLDEERLAFFRRDKTTPVLHHTEGHHHHHH” as the sequence, how does the “soluble on expression in E. coli” value read?
A: soluble

Q: With “MRLDYALFSQHLVNSREKAKALVLKNQVLVNKMVVSKPSFIVKENDKIELIAEKLFVSRAGEKLGAFLETHFVDFKGKVVLDVGASKGGFSQVALLKGAKRVLCVDVGKMQLDESLKQDKRIECYEECDIRGFKTPETIDLALCDVSFISLYYILEAILPLSDEFLTLFKPQFEVGRGIKRNKKGVVVDKEAILNALENFKNHLKTKDFQILKIQESLVKGKNGNVEFFIHFKRA” as the sequence, how does the “soluble on expression in E. coli” value read?
A: not soluble

Q: Which “soluble on expression in E. coli” value does the source give for “MSLILESLVTTLDEQGRINLAPLGPIVLPPQSPGGLPQFLLRPYEGSTTCDNLLASGNAVIHVIDDALLIAKTAIGKVDASDLVVPIPGLEDTHVRLKRCHRWFAVRVTQRAGTPPRHELTARCLASGLVDPFFGFNRAKHAVIEAAVAATRLHLLPPEEIEEELERARIAIEKTGGEPEREALQLIRRHVRESSISEGHHHHHH” here?
A: soluble

Q: With “SREEMSLGCQEAFEIFKRDHADSVTIDDNKQILKQRFSEAKALGESINEARSKIGHLKEEITQRHIQQVALGISENMAVPLMPDQQEEKLRSQLEEEKRRYKTMFTRLKALKVEIEHLQLLMDKAKVKLQKEFEVWWAEEATNLQVNSPAVNSLDHTKPFLQTSDSQHEWSQLLSNKSSGGWEVQDQGTGRFDVCDVNARKILPSPCPSPHSQKQSSTSTPLEDSIPKRPVSSIPLTGDSQTDSDIIAFIKARQSILQKQCLGSN” as the sequence, how does the “soluble on expression in E. coli” value read?
A: soluble

Q: With “MIEVKPINAEDTYELRHRILRPNQPIEACMFESDLLRGAFHLGGYYGGKLISIASFHQAEHSELQGQKQYQLRGMATLEGYREQKAGSSLIKHAEEILRKRGADLLWCNARTSASGYYKKLGFSEQGEVFDTPPVGPHILMYKRIT” as the sequence, how does the “soluble on expression in E. coli” value read?
A: soluble

Q: With “MKGDHYSPNWPQLALSKKQSVNWVCERCGVQCLKPGEGKGLLKEERYRFRMAVHHCDYDPSNNSPSNLMALCSLCHLYYHRRQQGNISLGQLSLEFYLEHHHHHH” as the sequence, how does the “soluble on expression in E. coli” value read?
A: soluble

Q: For “MEWIKQILAKHMKEDGTLDMEAANKEIDKEFPVNAVPKDQYNNLSSQLAEANKTLKSLEAKTKDNPDVQKELADLKEKADALEKENKDLKINSQVSAALQSAGAKDIDYALFKLGELELDKDGNVKDLESKVKDLKASIPDYFEKKDTLDDKSKKKTENKAGYQPIDNKLPKGKEPNEKDPFEAILSKYE”, which “soluble on expression in E. coli” value is on record?
A: not soluble

Q: Which “soluble on expression in E. coli” value does the source give for “MATANNPPSGLLDPTLCEDRIFYNILEIEPRFLTSDSVFGTFQQSLTSHMRKLLGTWMFSVCQEYNLEPNVVALALNLLDRLLLIKQVSKEHFQKTGSACLLVASKLRSLTPISTSSLCYAAADSFSRQELIDQEKELLEKLAWRTEAVLATDVTSFLLLKLVGGSQHLDFWHHEVNTLITKALVDPLTGSLPASIISAAGCALLVPANVIPQDTHSGGVVPQLASILGCDVSVLQAAVEQILTSVSDFDLRILDSY” here?
A: soluble

Q: For “MEEPEEPADSGQSLVPVYIYSPEYVSMCDSLAKIPKRASMVHSLIEAYALHKQMRIVKPKVASMEEMATFHTDAYLQHLQKVSQEGDDDHPDSIEYGLGYDCPATEGIFDYAAAIGGATITAAQCLIDGMCKVAINWSGGWHHAKKDEASGFCYLNDAVLGILRLRRKFERILYVDLDLHHGDGVEDAFSFTSKVMTVSLHKFSPGFFPGTGDVSDVGLGKGRYYSVNVPIQDGIQDEKYYQICESVLKEVYQAFNPKAVVLQLGADTIAGDPMCSFNMTPVGIGKCLKYILQWQLATLILGGGGYNLANTARCWTYLTGVILGKTLSSEIPDHEFFTAYGPDYVLEITPSCRPDRNEPHRIQQILNYIKGNLKHVVIEGRGSHHHHHH”, which “soluble on expression in E. coli” value is on record?
A: soluble

Q: With “MAHHHHHHMETIQELILSEENKTNIAVLNLGTNDRRNAVLILETALHLVEKYLGKIINTSYLYETVPEYIVLDKKESCEKINKDCRIYDVNYINELMQNLEESKYEENKELIDKCEEYETFLKNGKVDNSILKEVNVENYLLECNNIIVKNDEIMKNNLSKYKDKYYTSYFYNLTVVVKTFVNDPLSMLVVIKYIEELMKRENVKEKEKFENRIIDIDILFFNDFTIFMKNIKLEKNMIYKILSKYIHLERDIKNGNDNMSKVNMDKDINLNNNNNIKKKNNNDIDCDCVDQKMNNHVNNKNYINSFRDPQEIINNMVDNIEFLSIPHVYTTHRYSILLCLNDMIPEYKHNVLNNTIRCLYNKYVSRMKEQYNINIKENNKRIYVLKDRISYLKEKTNIVGILNVNYDSFSDGGIFVEPKRAVQRMFEMINEGASVIDIGGESSGPFVIPNPKISERDLVVPVLQLFQKEWNDIKNKIVKCDAKPIISIDTINYNVFKECVDNDLVDILNDISACTNNPEIIKLLKKKNKFYSVVLMHKRGNPHTMDKLTNYDNLVYDIKNYLEQRLNFLVLNGIPRYRILFDIGLGFAKKHDQSIKLLQNIHVYDEYPLFIGYSRKRFIAHCMNDQNVVINTQQKLHDEQQNENKNIVDKSHNWMFQMNYMRKDKDQLLYQKNICGGLAIASYSYYKKVDLIRVHDVLETKSVLDVLTKIDQV” as the sequence, how does the “soluble on expression in E. coli” value read?
A: not soluble

Q: For “MGSSHHHHHHSSGLEVLFQGPLHMRTQGIKPRIREILSKELPEELVKLLPKRWVRIGDVLLLPLRPELEPYKHRIAEVYAEVLGVKTVLRKGHIHGETRKPDYELLYGSDTVTVHVENGIKYKLDVAKIMFSPANVKERVRMAKVAKPDELVVDMFAGIGHLSLPIAVYGKAKVIAIEKDPYTFKFLVENIHLNKVEDRMSAYNMDNRDFPGENIADRILMGYVVRTHEFIPKALSIAKDGAIIHYHNTVPEKLMPREPFETFKRITKEYGYDVEKLNELKIKRYAPGVWHVVLDLRVFKS”, which “soluble on expression in E. coli” value is on record?
A: soluble

Q: Which “soluble on expression in E. coli” value does the source give for “MAQISGNQTGIGSIHPLLHQNTSDFSEQKFSSVFTGDEFFLRDHVVRGKPVLPGVAYLEMAYAAINQAAGSEIGQDVRIRLNHTVWVQPVVVDRHSAQVDISLFPEEDGKITFDIYSTQEDGDDPVIHSQGSAELASAAETPVADLTEMSRRCGKGKMSPDQFYEEGRSRGMFHGPAFQGIKNVNIGNREVLAQLQLPEIVSGTNEQFVLHPSIMDSALQTATICIMQELTDQKLILPFALEELEVIKGCSSSMWAYARLSDSDHSGGVVQKADIDVIDESGTVCVRIKGFSTRVLEHHHHHH” here?
A: soluble

Q: With “KKEEASSKSYRELIIEGLTALKERKGSSRPALKKFIKENYPIVGSASNFDLYFNNAIKKGVEAGDFEQPKGPAGAVKLAKKKSPEVKKEKEVS” as the sequence, how does the “soluble on expression in E. coli” value read?
A: soluble

Q: With “MGSDKIHHHHHHMRLRRLPVYVDAYKEKPNAEIFIYYSSRGTGKTYDIATVNLERKFSADGGDTLAIRKKKNKTTQSIHKEILELLSIYNLRKFFNISKAKIESKSLIFGKKRAFVFEGGHDTRDLKSYAHFKDLWLEEANQFSADDIEMLVPTMREQGGRIYMSSNPVPKSHWLYKRYLSNQDNPAVCIIKSTYRDNPFLNGGDVQAWLEKQRLAYHGNDIGFRIEVLGEEFDFGTARLIKKFNVCGPEILSRANGSYYTGIHVKGNRICFLEILVGRISYLPVVIITNACSKVLLSKTDYQSEINKFKGVFVLPTAREELKYVFSRFGRGTLLAKKRNLYSLSDYLIPSNLNVVNKPETTDVISEFNETEYYYDESSAEDSEVTNFVMQKDLVYIPAFLNAISVFS” as the sequence, how does the “soluble on expression in E. coli” value read?
A: not soluble

Q: With “DFKLDFKDIKGQEKAKRACMIAALGMHNILFEGSPGSGKSMCAKRLVYIMPPQSLSEILMQNAYMSLDSKDCEFTKIRAFRHPHHTSTRASIFGGGTKNARIGEVALANGGVLFFDEFPHFNKQIIESLREPLEDHKIHISRVNSKITYETKFSFIAAQNPCPCGNL” as the sequence, how does the “soluble on expression in E. coli” value read?
A: not soluble

Q: For “MDKLGENLNKALNKLKAAAFVDKKLIKEVIKDIQRALIQADVNVKLVLKMSKEIERRALEEKTPKGLSKKEHIIKIVYEELVKLLGEEAKKLELNPKKQNVILLVGIQGSGKTTTAAKLARYIQKRGLKPALIAADTYRPAAYEQLKQLAEKIHVPIYGDETRTKSPVDIVKEGMEKFKKADVLIIDTAGRHKEEKGLLEEMKQIKEITNPDEIILVIDGTIGQQAGIQAKAFKEAVGEIGSIIVTKLDGSAKGGGALSAVAETKAPIKFIGIGEGIDDLEPFDPKKFISRLLGMGDLESLLEKAEDMVDEKTEESIDAIMRGKFTLNELMTQLEAIENMGSMKKILSMIPGFGGAMPKELSHLTEAKIKKYKVIISSMTKEERENPKIIKASRIRRIARGSGTTENDVREVLRYYETTKNAIDKLHHHHHH”, which “soluble on expression in E. coli” value is on record?
A: soluble

Q: Which “soluble on expression in E. coli” value does the source give for “LVTISSTSAASLPTMPPSGYDQVRNGVPRGQVVNISYFSTATNSTRPARVYLPPGYSKDKKYSVLYLLHGIGGSENDWFEGGGRANVIADNLIAEGKIKPLIIVTPNTNAAGPGIADGYENFTKDLLNSLIPYIESNYSVYTDREHRAIAGLSMGGGQSFNIGLTNLDKFAYIGPISAAPNTYPNERLFPDGGKAAREKLKLLFIACGTNDSLIGFGQRVHEYCVANNINHVYWLIQGGGHDFNVWKPGLWNFLQMADEAGLTRDGNT” here?
A: soluble

Q: Which “soluble on expression in E. coli” value does the source give for “MGSDKIHHHHHHGILKERKLAKKRDEVQRYVLMAADVNLGQGNEFREIFAKSVKPLLINLDTGKVDSDANVLDFDERMAAINPETSSTPKKDIAKIKTRANDARVFKVFDDSGKLSSVVVPFYGKGLWSMIYGYVAVEPDFNTIKGLVVYEHGETPGIGDFVTDPAWLNQWKNKQLFDEKGKFAIRLVKGGVKEGDVHGVDAVSGATMTGRGVQRAMEFWFGVEGFQTFFNQLKTSAVQGEFGGEK” here?
A: not soluble

Q: With “MLEKYGRCRKRRLLKEVVLILLVAAVQPVLSSSKSTPEAQLTDVELTCPDDWIRHGTKCYLPFNIHQSWPFAMTTCQRYGSTLAKIQTGSENQFIASLLSKPGKPTEGKEYWIGLTVEVLDDDELYLWSDGTPTSRYVGFWRQDQPNFLNGSCALGKVERKDLEWRLDTCNLLRRFVCERPACVQGSYFCSSGSCISESKKCNGHNDCDDGSDEQNCPSAFQPNCRTYEKGESGQLSSTNYPNSYDPNLNCRHVLEGPINSRIELTIEHFETEPDFDILTVLDGGPAENSTTVIKRLSGSMETVQTITSATNMMIVQFRTDAQSNARGWQLKWRAVPFTCGGHFTAQAYIQSFVSPGYPKTFANGAECVWTVESTPGQVVSLIMKSGKTWG” as the sequence, how does the “soluble on expression in E. coli” value read?
A: not soluble

Q: For “MFSALRHRTAALALGVCFILPVHASSPKPGDFANTQARHIATFFPGRMTGTPAEMLSADYIRQQFQQMGYRSDIRTFNSRYIYTARDNRKNWHNVTGSTVIAAHEGKAPQQIIIMAHLDTYAPQSDADADANLGGLTLQGMDDNAAGLGVMLELAERLKNTPTEYGIRFVATSGEEEGKLGAENLLKRMSDTEKKNTLLVINLDNLIVGDKLYFNSGVKTPEAVRKLTRDRALAIARSHGIAATTNPGLNKNYPKGTGCCNDAEIFDKAGIAVLSVEATNWNLGNKDGYQQRAKTAAFPAGNSWHDVRLDNQQHIDKALPGRIERRCRDVMRIMLPLVKELAKAS”, which “soluble on expression in E. coli” value is on record?
A: not soluble

Q: Which “soluble on expression in E. coli” value does the source give for “MGSDKIHHHHHHMELRGIWLTNVDSKILHSRDKIAEAMNFLVDTGFNVIFPVVWNKAFTLYPSQLMETTFGQEIDPLYKGRDPLAEVIIEAQRVGLKVIPWFEYGFVSSYKQNGGLILSKKPEWIARERKGNLLVKNGFEWMNALDEEVQNFLIDLVLEVVRNYDIDGIQGDDRMPAFPSEGGYDAKTVGRYRQQFSCHPPQNNKDHKWLQWRANILTDFLARLYGKVKAVKPNILVSMAPSFYKWGFNEYLQDYPTWINREVVDIVHPQLYRRDFSSYKSLVEQLVKQQFIATHLNKIFPGILIKIGSYRISMDYLLEAIAYNRSVGINGEVLFFYEGLRENNDVLAKALRKYVYN” here?
A: not soluble
